Experimental data: IntAct's records for PubMed 19395483

B1: ATP-dependent protease ATPase subunit HslU (Escherichia coli (strain K12)), P0A6H5 (parent)
chain: MSEMTPREIVSELDKHIIGQDNAKRSVAIALRNRWRRMQLNEELRHEVTPKNILMIGPTGVGKTEIARRLAKLANAPFIKVEATKFTEVGYVGKEVDSIIRDLTDAAVKMVRVQAIEKNRYRAEELAEERILDVLIPPAKNNWGQTEQQQEPSAARQAFRKKLREGQLDDKEIEIDLAAAPMGVEIMAPPGMEEMTSQLQSMFQNLGGQKQKARKLKIKDAMKLLIEEEAAKLVNPEELKQDAIDAVEQHGIVFIDEIDKICKRGESSGPDVSREGVQRDLLPLVEGCTVSTKHGMVKTDHILFIASGAFQIAKPSDLIPELQGRLPIRVELQALTTSDFERILTEPNASITVQYKALMATEGVNIEFTDSGIKRIAEAAWQVNESTENIGARRLHTVLERLMEEISYDASDLSGQNITIDADYVSKHLDALVADEDLSRFIL
partner: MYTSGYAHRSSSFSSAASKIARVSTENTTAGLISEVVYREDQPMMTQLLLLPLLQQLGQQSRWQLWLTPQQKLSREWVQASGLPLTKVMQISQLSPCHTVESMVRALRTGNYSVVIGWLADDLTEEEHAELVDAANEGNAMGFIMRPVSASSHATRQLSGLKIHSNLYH

Variants of: B1
Settings: with sula_ecoli sulA

Q: For V89I, which “effect of a mutation on the interaction” value is on record?
A: increasing interaction strength

Q: I186N was tested. Which “effect of a mutation on the interaction” value did it give?
A: disrupting interaction strength
